We go through 36 sequences from the supplement of paper PMC10567573.

± gives the standard deviation.

This data set in a line: protein stability index of a GFP-peptide fusion (GPS, HEK-293T) (PSI 1-6); higher = more stable. Conditions: c terminus: a fixed tail appended.
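Also: 24-mer peptide tiles fused after GFP, lentivirally expressed, FACS-sorted into six equal bins by GFP/DsRed ratio, decoded by Illumina sequencing, PSI is the read-weighted mean bin number.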

LQCRSPPRLHGAKAILDAEPGPRP [TBC1D10A]: the protein stability index (treatment: DMSO) was determined as 4.46 ± 0.12 and the protein stability index (treatment: MLN4924 1 uM, 8 h) was 4.48 ± 0.12.
For LQDLALQGAKERAHQQKKHSGFED [CHGA], in that order: 4.92 ± 0.29 and 5.06 ± 0.22.
Consider LQGLIPGARYEVTVVSVRGFEESE [TNXB], for which the protein stability index by setting is: (treatment: DMSO) 2.19 ± 0.34; (treatment: MLN4924 1 uM, 8 h) 2.44 ± 0.78.
LQHVSEPQAHQESTRGAARPAQAI [SPACA9]: the protein stability index (treatment: DMSO) turned out to be 4.96 ± 0.19 and the protein stability index (treatment: MLN4924 1 uM, 8 h) came out at 5.04 ± 0.098.
For LQILAYGNQESKLIILASGGPQAL [CTNNB1], in that order: 2.89 ± 1.4 and 2.22 ± 1.1.
For LQRQAEQNPTASYYNVVLLRYQFS [FCHO1], in that order: 2.23 ± 0.4 and 2.28 ± 0.34.
For the sequence LRDDVLCARMLYNYGADTNTRNYE [ASB7], the protein stability index by setting is: (treatment: DMSO) 3.1 ± 0.21; (treatment: MLN4924 1 uM, 8 h) 2.86 ± 0.14.
The like results for LREIPETTPIEEVKGLFKSENCPK [LARP4] were, in that order, 5.06 ± 0.19 and 5.1 ± 0.33.
The like results for LRELCRLWLRPETHTKEQILELVV [ZNF24] were, in that order, 2.44 ± 0.21 and 2.11 ± 0.34.
The like results for LRLLQHTPSARRNYRIAGARLMRS [C6orf223] were, in that order, 2.99 ± 0.22 and 3.08 ± 0.32.
In turn, LRRESTSQKEMDKAETKTKKAAES [FCHO1] came in with a protein stability index (treatment: DMSO) of 5.45 ± 0.28 and a protein stability index (treatment: MLN4924 1 uM, 8 h) of 5.46 ± 0.13.
Turning to LRRKTPRHKQPTLLMVRASRRSGK [C6orf223], the protein stability index (treatment: DMSO) stood at 3.61 ± 0.13 and the protein stability index (treatment: MLN4924 1 uM, 8 h) is 4.04 ± 0.22.
The like results for LSGVEEELQRTKQEVLSLRRENST [SASS6] were, in that order, 5.07 ± 0.22 and 5 ± 0.21.
For LSLPARNQAGYFMLPTVITDIKDE [ALDH8A1], in that order: 3.81 ± 0.39 and 3.88 ± 0.27.
Regarding LSNLVQHILKKYYGNGMRKSPEMP [RTP4], the protein stability index was 2.43 ± 0.35 (treatment: DMSO) and 2.28 ± 0.11 (treatment: MLN4924 1 uM, 8 h).
The like results for LSQPQQGEAMLANFKPRGYSECIV [GAN] were, in that order, 3.13 ± 0.21 and 3.02 ± 0.37.
With LSSDRVANSSSEAPFPNVSTSLLT [ADAMTSL2], the protein stability index (treatment: DMSO) was 4.17 ± 0.21 and the protein stability index (treatment: MLN4924 1 uM, 8 h) came out at 4.14 ± 0.29.
For LSSNREAHQHRDKMQQSKNQVVSS [CSNK1G3], in that order: 4.72 ± 0.21 and 4.81 ± 0.37.
For LTELVQRRITYLQNPKDCSKAKKL [FUT8], the protein stability index by setting is: (treatment: DMSO) 3.99 ± 0.35; (treatment: MLN4924 1 uM, 8 h) 4.08 ± 0.24.
Take LTLQVLVAGNPQDTRLRYSFFVPR [ADAMTS4]: the protein stability index by setting is: (treatment: DMSO) 3.13 ± 0.4; (treatment: MLN4924 1 uM, 8 h) 3.19 ± 0.44.
For LVAKELGQTGTRLTPADKAEHMKR [AUP1], in that order: 4.41 ± 0.4 and 4.29 ± 0.21.
LVVDYIDEGRLVLEFSLLSYAFGK [SOAT1]: the protein stability index was 3.29 ± 0.8 (treatment: DMSO) and 3.17 ± 0.48 (treatment: MLN4924 1 uM, 8 h).
Take LWKRMDKLEAEKRILQEKLDQPVS [CCDC6]: the protein stability index is, setting by setting: (treatment: DMSO) 3.81 ± 0.2; (treatment: MLN4924 1 uM, 8 h) 3.94 ± 0.35.
Turning to LYPAVSAVWGQCQVRIRYLGERRA [SPSB2], the protein stability index was determined as 2.56 ± 0.19 (treatment: DMSO) and 2.62 ± 0.38 (treatment: MLN4924 1 uM, 8 h).
Turning to LYQKQPKIGYHLLYYLRASKAAAG [INTS3], the protein stability index (treatment: DMSO) is 2.55 ± 0.31 and the protein stability index (treatment: MLN4924 1 uM, 8 h) was 2.25 ± 0.33.
The like results for MAAESGELIGACEFMKDRLYFATL [CDC14A] were, in that order, 2.53 ± 1.1 and 1.82 ± 0.46.
Consider MAAPEERDLTQEQTEKLLQFQDLT [FAF2], for which the protein stability index by setting is: (treatment: DMSO) 5.13 ± 0.29; (treatment: MLN4924 1 uM, 8 h) 5.16 ± 0.2.
On to MADGNEDLRADDLPGPAFESYESM [KLHDC2], for which the protein stability index is, setting by setting: (treatment: DMSO) 5.41 ± 0.23; (treatment: MLN4924 1 uM, 8 h) 5.26 ± 0.26.
The like results for MAGGPPNTKAEMEMSLAEELNHGR [FATE1] were, in that order, 5.17 ± 0.14 and 5.22 ± 0.27.
The like results for MEALAAETNLLLAQKQRLERALDA [TEKT4] were, in that order, 4.13 ± 0.4 and 4.13 ± 0.38.
For MEDKEMTGPQLPESLEDVAMYISQ [ZNF263], in that order: 4.73 ± 0.23 and 4.78 ± 0.2.
For MEHLIYGEPRKLLTQDWVQENYLE [MAGEA10], the protein stability index (treatment: DMSO) stood at 3.41 ± 0.35 and the protein stability index (treatment: MLN4924 1 uM, 8 h) turned out to be 3.47 ± 0.3.
With MEMYNVIMTVKEDQFSALGLDPCL [SLC6A17], the protein stability index by setting is: (treatment: DMSO) 2.45 ± 0.62; (treatment: MLN4924 1 uM, 8 h) 2.26 ± 0.15.
For MGQTALAGGSSSTPTPQALYPDLS [SPSB2], the protein stability index reads like this: (treatment: DMSO) 4.46 ± 0.37; (treatment: MLN4924 1 uM, 8 h) 4.66 ± 0.37.
For MGVNAVHWFRKGLRLHDNPALKEC [CRY1], the protein stability index amounted to 2.53 ± 0.23 (treatment: DMSO) and 2.54 ± 0.31 (treatment: MLN4924 1 uM, 8 h).
In the case of MGWFNNEVGSMKIQSGAWVCYQYP [CRYBA1], the protein stability index by setting is: (treatment: DMSO) 2.74 ± 0.73; (treatment: MLN4924 1 uM, 8 h) 2.61 ± 0.29.
